Molecular target: Heat shock protein 90α (human) (UniProt P07900)
Test: pull-down

percent eluted, Hsp70 alone without m3 (control beads' nonadsorbed = 100%): 18% | percent nonadsorbed, Hsp70 alone without m3 (control beads' nonadsorbed = 100%): 70%
Substance: Recombinant human Hsp70 (from UniProt P0DMV8 1-641) (natural protein)

Source: article PMC2574963
